Assay results reported in patent US20150203577A1 (Chugai, published 2015).
Changes are numbered by the printed parent chain.

T1: mouse FcγRII extracellular domain, C-terminally His-tagged (mouse, UniProt P08101 30-210)
T1 construct: the whole entry is named; also called mFcγRII; mFcgRII
T1 sequence: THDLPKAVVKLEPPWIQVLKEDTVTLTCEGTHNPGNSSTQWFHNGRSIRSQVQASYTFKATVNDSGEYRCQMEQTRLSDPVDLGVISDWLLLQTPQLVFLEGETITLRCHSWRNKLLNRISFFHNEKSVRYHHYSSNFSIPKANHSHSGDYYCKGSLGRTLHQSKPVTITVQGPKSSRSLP

T2: mouse FcγRIII extracellular domain, C-terminally His-tagged (mouse, UniProt P08508 31-215)
T2 construct: the whole entry is named; also called mFcγRIII; mFcgRIII
T2 chain: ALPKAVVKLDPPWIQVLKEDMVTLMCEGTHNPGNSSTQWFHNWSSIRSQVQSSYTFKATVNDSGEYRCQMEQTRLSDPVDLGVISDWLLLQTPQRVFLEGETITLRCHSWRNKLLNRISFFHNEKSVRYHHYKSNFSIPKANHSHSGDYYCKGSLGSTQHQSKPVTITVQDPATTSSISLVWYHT

B1: H237-MB476/MRAL-k0 (antibody, mouse IgG1, kappa)
heavy: QVQLQESGPGLVKPSETLSLTCAVSGHSISHDHAWSWVRQPPGEGLEWIGFISYSGITNYNPSLQGRVTISRDNSKNTLYLQMNSLRAEDTAVYYCARSLARTTAMDYWGEGTLVTVSSAKTTPPSVYPLAPGSAAQTNSMVTLGCLVKGYFPEPVTVTWNSGSLSSGVHTFPAVLQSDLYTLSSSVTVPSSTWPSETVTCNVAHPASSTKVDKKIVPRDCGCKPCICQPNEVEEVFIFPPKPKDVLTITLTPKVTCVVVDISKDDPEVQFSWFVDDVEVHTAQTQPREEQFNSTFRSVSELPIMHQDWLNGKEFKCRVNSAAFPAPIEKTISKTKGRPKAPQVYTIPPPKEQMAKDKVSLTCMITDFFPEDITVEWQWNGQPAENYKNTQPIMDTDGSYFVYSKLNVQKSNWEAGNTFTCSVLHEGLHNHHTEKSLSHSPGK
light: not shown
notes: Template; copies: 2 + 2
B2: H237-MB539/MRAL-k0 (antibody, mouse IgG1, kappa)
heavy: B1 heavy with Q229E, E235M, S294L, N320D
light: not shown
notes: copies: 2 + 2
B3: H237-MB532/MRAL-k0 (antibody, mouse IgG1, kappa)
heavy: B1 heavy with A322D, K330R
light: not shown
notes: copies: 2 + 2
B4: H237-MB529/MRAL-k0 (antibody, mouse IgG1, kappa)
heavy: B1 heavy with S294L, K330R
light: not shown
notes: copies: 2 + 2
B5: H237-MB531/MRAL-k0 (antibody, mouse IgG1, kappa)
heavy: B1 heavy with N320D, K330R
light: not shown
notes: copies: 2 + 2
B6: H237-MB515/MRAL-k0 (antibody, mouse IgG1, kappa)
heavy: B1 heavy with Q229E, E235M
light: not shown
notes: Template; copies: 2 + 2
B7: H237-MB543/MRAL-k0 (antibody, mouse IgG1, kappa)
heavy: B1 heavy with Q229E, E235M, N320D, K330R
light: not shown
notes: copies: 2 + 2
B8: H237-MB534/MRAL-k0 (antibody, mouse IgG1, kappa)
heavy: B1 heavy with S294L, N320D, K330R
light: not shown
notes: copies: 2 + 2
B9: H237-MB533/MRAL-k0 (antibody, mouse IgG1, kappa)
heavy: B1 heavy with S294L, N320D, A322D
light: not shown
notes: copies: 2 + 2
B10: H237-MB536/MRAL-k0 (antibody, mouse IgG1, kappa)
heavy: B1 heavy with N320D, A322D, K330R
light: not shown
notes: copies: 2 + 2
B11: H237-MB526/MRAL-k0 (antibody, mouse IgG1, kappa)
heavy: B1 heavy with S294L
light: not shown
notes: copies: 2 + 2
B12: H237-MB544/MRAL-k0 (antibody, mouse IgG1, kappa)
heavy: B1 heavy with Q229E, E235M, A322D, K330R
light: not shown
notes: copies: 2 + 2
B13: H237-MB542/MRAL-k0 (antibody, mouse IgG1, kappa)
heavy: B1 heavy with Q229E, E235M, N320D, A322D
light: not shown
notes: copies: 2 + 2
B14: H237-MB538/MRAL-k0 (antibody, mouse IgG1, kappa)
heavy: B1 heavy with Q229E, E235M, S294L
light: not shown
notes: copies: 2 + 2
B15: H237-MB527/MRAL-k0 (antibody, mouse IgG1, kappa)
heavy: B1 heavy with S294L, N320D
light: not shown
notes: also called MG527; copies: 2 + 2
B16: H237-MB535/MRAL-k0 (antibody, mouse IgG1, kappa)
heavy: B1 heavy with S294L, A322D, K330R
light: not shown
notes: copies: 2 + 2
B17: H237-MB528/MRAL-k0 (antibody, mouse IgG1, kappa)
heavy: B1 heavy with S294L, A322D
light: not shown
notes: copies: 2 + 2
B18: H237-MB537/MRAL-k0 (antibody, mouse IgG1, kappa)
heavy: B1 heavy with S294L, N320D, A322D, K330R
light: not shown
notes: also called M6537; copies: 2 + 2
B19: H237-MB530/MRAL-k0 (antibody, mouse IgG1, kappa)
heavy: B1 heavy with N320D, A322D
light: not shown
notes: copies: 2 + 2
B20: H237-MB541/MRAL-k0 (antibody, mouse IgG1, kappa)
heavy: B1 heavy with Q229E, E235M, S294L, K330R
light: not shown
notes: copies: 2 + 2
B21: H237-MB540/MRAL-k0 (antibody, mouse IgG1, kappa)
heavy: B1 heavy with Q229E, E235M, S294L, A322D
light: not shown
notes: copies: 2 + 2

Target: T1, mouse FcγRII extracellular domain, …
Assay: SPR Biacore T200, KD ratio
Excerpt: (§1) The antibody H chain variable region used was the variable region H237 (SEQ ID NO: 1) of the H chain VH3-IgG1 of the anti-IL-6 receptor antibody Fv4-IgG1 described in WO2009/125825. The antibody L chain commonly used was the L chain MRAL-k0 (SEQ ID NO: 2) of the anti-IL-6 receptor antibody tocilizumab. H237-MB476/MRAL-k0 and H237-MB515/MRAL-k0 were used as templates to introduce new alterations. These variants were expressed and purified by the method of Reference Example 1 and evaluated for their binding to mFcγRII and mFcγRIII by the method of Reference Example 2 using Biacore T200.
(§2) Each altered antibody was analyzed for its interaction with each Fcγ receptor prepared above using Biacore T100 (GE Healthcare Japan Corp.), Biacore T200 (GE Healthcare Japan Corp.), Biacore A100, or Biacore 4000. The running buffer used was HBS-EP+ (GE Healthcare Japan Corp.). The assay temperature was set to 25° C. The sensor chips used were chips prepared by immobilizing Protein L (ACTIGEN or BioVision) onto Series S Sensor Chip CM5 (GE Healthcare Japan Corp.) or Series S Sensor Chip CM4 (GE Healthcare Japan Corp.) by the amine coupling method.
(§3) In order to calculate the KD value of each altered antibody for FcγR, kinetic analysis was conducted according to the following method: first, the antibody of interest was captured onto any of these chips and allowed to interact with mFcγR diluted with a running buffer. For the obtained sensorgram, the assay results were globally fit into the 1:1 Langmuir binding model using Biacore Evaluation Software to calculate an association rate constant ka (L/mol/s) and a dissociation rate constant kd (1/s). From these values, the dissociation constant KD (mol/L) was calculated.

Row | relative mFcγRII-binding activity (mIgG1 = 1) [fold] | relative mFcγRII-binding activity (template H237-MB515/MRAL-k0 = 1) [fold] | relative mFcγRII-binding activity (H237-mIgG1/MRAL-k0 = 1) [fold] | relative mFcγRII-binding activity (template H237-MB476/MRAL-k0 = 1) [fold] | Binder
1 | 261 | – | – | – | B1
2 | 105 | – | – | – | B2
3 | 329 | – | – | – | B3
4 | 282 | – | – | – | B4
5 | 229 | – | – | – | B5
6 | 137 | – | – | – | B6
7 | 195 | ≥ 1.4 | – | – | B7
8 | 421 | – | – | – | B8
9 | 394 | – | – | – | B9
10 | 396 | – | – | – | B10
11 | 232 | – | – | – | B11
12 | 276 | ≥ 1.4 | – | – | B12
13 | 384 | ≥ 1.4 | ≥ 350 | – | B13
14 | 86.2 | – | – | – | B14
15 | 273 | – | – | – | B15
16 | 422 | – | – | – | B16
17 | 375 | – | – | – | B17
18 | 510 | – | – | – | B18
19 | 623 | – | ≥ 350 | ≥ 1.4 | B19
20 | 103 | – | – | – | B20
21 | 149 | – | – | – | B21

Target: T2, mouse FcγRIII extracellular domain, …
Assay: SPR Biacore T200, KD ratio
Excerpt: as §1, §2, §3

Row | relative mFcγRIII-binding activity (mIgG1 = 1) [fold] | Binder
22 | 2.6 | B1
23 | 1.9 | B2
24 | 6.2 | B3
25 | 5.9 | B4
26 | 3.3 | B5
27 | 1.3 | B6
28 | 2.2 | B7
29 | 33.8 | B8
30 | 7.2 | B9
31 | 7.7 | B10
32 | 8.5 | B11
33 | 3.2 | B12
34 | 3.4 | B13
35 | 1.7 | B14
36 | 5.5 | B15
37 | 8.5 | B16
38 | 14.6 | B17
39 | 8.9 | B18
40 | 8 | B19
41 | 3.3 | B20
42 | 2.8 | B21

Target: T1, mouse FcγRII extracellular domain, …
Assay: SPR Biacore T200, KD ratio, template MB476
Excerpt: as §1, §2, §3

Row | relative mFcγRII-binding activity (template = 1) [fold] | Binder
43 | 1 | B1
44 | 1.26 | B3
45 | 1.08 | B4
46 | 0.88 | B5
47 | 1.61 | B8
48 | 1.51 | B9
49 | 1.52 | B10
50 | 0.89 | B11
51 | 1.05 | B15
52 | 1.61 | B16
53 | 1.44 | B17
54 | 1.95 | B18
55 | 2.38 | B19

Target: T2, mouse FcγRIII extracellular domain, …
Assay: SPR Biacore T200, KD ratio, template MB476
Excerpt: as §1, §2, §3

Row | relative mFcγRIII-binding activity (template = 1) [fold] | Binder
56 | 1 | B1
57 | 2.35 | B3
58 | 2.24 | B4
59 | 1.25 | B5
60 | 12.8 | B8
61 | 2.74 | B9
62 | 2.9 | B10
63 | 3.23 | B11
64 | 2.09 | B15
65 | 3.21 | B16
66 | 5.52 | B17
67 | 3.36 | B18
68 | 3.04 | B19

Target: T1, mouse FcγRII extracellular domain, …
Assay: SPR Biacore T200, KD ratio, template MB515
Excerpt: as §1, §2, §3

Row | relative mFcγRII-binding activity (template = 1) [fold] | Binder
69 | 0.77 | B2
70 | 1 | B6
71 | 1.42 | B7
72 | 2.01 | B12
73 | 2.8 | B13
74 | 0.63 | B14
75 | 0.75 | B20
76 | 1.09 | B21

Target: T2, mouse FcγRIII extracellular domain, …
Assay: SPR Biacore T200, KD ratio, template MB515
Excerpt: as §1, §2, §3

Row | relative mFcγRIII-binding activity (template = 1) [fold] | Binder
77 | 1.45 | B2
78 | 1 | B6
79 | 1.69 | B7
80 | 2.45 | B12
81 | 2.57 | B13
82 | 1.3 | B14
83 | 2.48 | B20
84 | 2.15 | B21
